The source of these data is the RNAGym collection of RNA variant scans (doi:10.1093/nar/gkz1192).

The labels stand for the following.
B1: CPEB3 Ribozyme (parent)
chain: UAACAGGGGGCCACAGCAGAAGCGUUCACGUCGCAGCCCCUGUCAGAUUCUGGUGAAUCUGCGAAUUCUGCUGUAUAUCUC

Variants of B1 are the subject of the data set. Description: self-cleavage, relative activity (ratio to wild type); higher = more cleavage; in vitro, sequencing. The method in brief:
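After error-prone PCR and barcoding, CPEB3 ribozyme mutant libraries were transcribed with T7 RNA polymerase at 37°C for 5 hours, then given 15 min with DNase I before an EDTA stop, and they cleaved during both steps. Reverse transcription with template switching preceded Illumina sequencing. Relative activity divides a variant's cleaved/total read fraction by the unmutated ribozyme's. At least 5 reads were required per variant, and three batches were averaged.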
C12A G52A: the self-cleavage came out at 1.23.

In the case of C38A A56C, the self-cleavage was determined as 0.1.

For U31A U78G, the self-cleavage is 0.46.

Turning to U31A U49A, the self-cleavage is 0.41.

Turning to G52A U58C, the self-cleavage was determined as 0.68.

G30C U67G: the self-cleavage was 0.09.

Consider G33C A65C, for which the self-cleavage is 0.1.

With A20G U54C, the self-cleavage came to 0.88.

Consider G46A A77U, for which the self-cleavage was 0.48.

With C23U U49C, the self-cleavage is 0.28.

Consider C50U G52A, for which the self-cleavage is 0.99.

On to U26G U49A, for which the self-cleavage turned out to be 0.28.

Regarding C32A G73C, the self-cleavage worked out at 0.17.

As for U48C U60A, the self-cleavage worked out at 0.26.

On to C59A A65U, for which the self-cleavage is 0.05.

On to U43A C50A, for which the self-cleavage is 1.07.

As to U43C C71G, the self-cleavage was 0.28.

As for A57C U67C, the self-cleavage was 0.27.

For A21G A64G, the self-cleavage is 0.42.

With A45U A64G, the self-cleavage was 0.33.

Take U26G A47G: the self-cleavage was determined as 0.39.

With G30C A56G, the self-cleavage stood at 0.16.

With G8U A75U, the self-cleavage worked out at 0.35.

Regarding U58G U78C, the self-cleavage was determined as 0.34.

As for U26C C44U, the self-cleavage stood at 0.26.

For G7A A47G, the self-cleavage is 0.09.

Consider G42U A75G, for which the self-cleavage came to 0.19.

In the case of A35G U54A, the self-cleavage turned out to be 1.28.

In the case of U25C C81U, the self-cleavage came to 0.15.

C34G U69C: the self-cleavage is 0.21.

Turning to G8A C32A, the self-cleavage came out at 0.2.

As for A15C U54C, the self-cleavage was determined as 0.98.

With U69C U72G, the self-cleavage worked out at 0.35.

In the case of U43G U60A, the self-cleavage was 0.15.

Consider U43G U60C, for which the self-cleavage amounted to 0.13.

As for U26C C79G, the self-cleavage amounted to 0.59.

On to U43G U51C, for which the self-cleavage worked out at 0.2.

U67A U78C: the self-cleavage is 0.52.

In the case of G70U U74C, the self-cleavage is 0.26.

As for U31C A65U, the self-cleavage worked out at 0.25.

In the case of A56U U76C, the self-cleavage turned out to be 0.8.

U43C A64G: the self-cleavage was found to be 0.51.

Take U51A U66C: the self-cleavage stood at 0.42.

Consider G7U A45U, for which the self-cleavage is 0.14.

Turning to G8A G70A, the self-cleavage came to 0.05.

U60G U72G: the self-cleavage was 0.28.

Consider G10A U26A, for which the self-cleavage was 0.07.

As to A56G G63A, the self-cleavage came to 0.97.

A13C C50A: the self-cleavage is 0.87.

With U48G U51C, the self-cleavage stood at 0.53.

For C37A C59U, the self-cleavage stood at 0.24.

Consider G24U A77U, for which the self-cleavage was 0.15.

Turning to U51G A75U, the self-cleavage turned out to be 1.22.

With A5U G24C, the self-cleavage is 0.36.

Consider U51C U69C, for which the self-cleavage was determined as 0.6.

Turning to G63U A65G, the self-cleavage amounted to 0.5.

Consider A3G U72C, for which the self-cleavage stood at 1.09.

With G7U A21U, the self-cleavage is 0.34.

Take C34A U48C: the self-cleavage was found to be 0.13.

Turning to A20G C32U, the self-cleavage stood at 0.22.

For U26C C71U, the self-cleavage amounted to 0.24.

Regarding A20C U72C, the self-cleavage came to 0.3.

C17U U26G: the self-cleavage is 0.09.

For the variant G9C A56G, the self-cleavage stood at 0.24.

On to A3C U76A, for which the self-cleavage came out at 1.

As to G70C A77G, the self-cleavage turned out to be 0.49.

On to C23G C62A, for which the self-cleavage was found to be 0.29.

With A2U U51C, the self-cleavage worked out at 1.07.

On to A2G U54C, for which the self-cleavage is 0.58.

As to G33U A64G, the self-cleavage worked out at 0.12.

Regarding U1A A77U, the self-cleavage is 1.05.

On to A20G G63U, for which the self-cleavage amounted to 0.83.

Take U25A C38U: the self-cleavage was 0.23.

For the variant G42U A57G, the self-cleavage amounted to 0.19.

Turning to U26A A77G, the self-cleavage was found to be 0.91.

With A57U U80A, the self-cleavage is 0.55.

For the variant G22A U48C, the self-cleavage came to 0.19.

For the variant A28C U43C, the self-cleavage amounted to 0.4.

Turning to A21U U69C, the self-cleavage came to 0.26.

As for U31A G42C, the self-cleavage turned out to be 0.53.

Consider A13G C29G, for which the self-cleavage was found to be 0.11.

A28G G42C: the self-cleavage is 0.18.

Consider A21G C40A, for which the self-cleavage turned out to be 0.26.

As to G52U A64G, the self-cleavage was 1.08.

For U25A U51A, the self-cleavage is 0.33.

Turning to C62U C71A, the self-cleavage was 0.26.

Regarding C14U U41A, the self-cleavage stood at 0.24.

For the variant U1C A65U, the self-cleavage came to 0.31.

G6U U48C: the self-cleavage is 0.13.

With A20G A21C, the self-cleavage worked out at 0.32.

Take A15G U74C: the self-cleavage came to 1.21.

Turning to G19A A35U, the self-cleavage is 0.17.

On to A15G A20C, for which the self-cleavage worked out at 0.18.

Take A35C A45U: the self-cleavage was found to be 0.24.

Consider A20U A47G, for which the self-cleavage is 0.33.

As to G8C U60C, the self-cleavage worked out at 0.24.

Take U66C U69G: the self-cleavage was determined as 0.31.

In the case of A20G U58A, the self-cleavage worked out at 0.27.

In the case of A15U C32G, the self-cleavage came to 0.06.

Turning to G24A A64U, the self-cleavage stood at 0.28.

Consider A77G C81A, for which the self-cleavage was 1.2.

As to C17G U49C, the self-cleavage is 0.06.

C38A A47G: the self-cleavage was 0.2.

For U43G U74A, the self-cleavage came out at 0.11.

With A45U A75G, the self-cleavage is 0.35.

As to G33C A35G, the self-cleavage was 0.22.

As for A28C U48C, the self-cleavage came to 0.46.

On to G8A C14G, for which the self-cleavage stood at 0.38.

With C50U U66C, the self-cleavage amounted to 0.45.

Turning to G6A U54A, the self-cleavage came to 0.27.

On to C27A U69A, for which the self-cleavage turned out to be 0.08.

Turning to U43C A57U, the self-cleavage worked out at 0.22.

As to G24A U41A, the self-cleavage came out at 0.21.

Take A45G U69G: the self-cleavage stood at 0.32.

In the case of U43C U69A, the self-cleavage was 0.32.

As to A21U C37U, the self-cleavage was 0.18.

As for A47U U60A, the self-cleavage came out at 0.21.

Turning to G55A U67A, the self-cleavage turned out to be 0.28.

For A13U U25A, the self-cleavage stood at 0.26.

For G63C U67C, the self-cleavage is 0.31.

In the case of C29A U48C, the self-cleavage was 0.11.

On to A18C G33U, for which the self-cleavage is 0.13.

For the variant A3G G9U, the self-cleavage worked out at 0.34.

For G7U A47C, the self-cleavage came out at 0.37.

As for A45G C62G, the self-cleavage came to 0.25.

In the case of G9U U51C, the self-cleavage is 0.17.

As to G33A U48G, the self-cleavage came to 0.18.

As to U58C C62U, the self-cleavage was 0.22.

Take C44U C81A: the self-cleavage is 0.11.

As to A15G C59U, the self-cleavage worked out at 0.69.

Consider G10U U80C, for which the self-cleavage is 0.23.

Consider A21U A75U, for which the self-cleavage turned out to be 0.37.

In the case of A20U U80A, the self-cleavage was 0.45.

In the case of C27A U60C, the self-cleavage was 0.18.

On to A5U G9U, for which the self-cleavage is 0.34.

For A35C A75U, the self-cleavage was determined as 0.97.

In the case of U41C C81A, the self-cleavage worked out at 1.19.

As to C12U U69A, the self-cleavage amounted to 0.95.

As for A21G U43A, the self-cleavage stood at 0.75.

With U43C G55U, the self-cleavage was 0.52.

With A21G C27A, the self-cleavage was determined as 0.14.

Turning to A35C U66A, the self-cleavage stood at 0.21.

Consider U1C U25C, for which the self-cleavage came out at 0.32.

As to A18G U51C, the self-cleavage came out at 0.48.

As to G6C G19A, the self-cleavage came out at 0.48.

Regarding G10A G53A, the self-cleavage is 0.29.

Consider U31A, for which the self-cleavage stood at 0.56.

For the variant A15U U41A, the self-cleavage is 0.17.

Regarding U49C U78A, the self-cleavage came to 0.46.

In the case of U66C U76C, the self-cleavage is 0.43.

Regarding G55U U69C, the self-cleavage turned out to be 0.48.

As to U25C U43A, the self-cleavage worked out at 0.34.

Take A20G A65G: the self-cleavage came to 0.32.

A5U A47G: the self-cleavage was 0.95.

In the case of U26A G30U, the self-cleavage amounted to 0.19.

U1A C11G: the self-cleavage was found to be 0.49.

Take U26A U41G: the self-cleavage worked out at 0.33.

A18G A20G: the self-cleavage worked out at 0.49.

In the case of A35G C38A, the self-cleavage was 1.21.

A3C C62U: the self-cleavage came out at 0.29.

A15G A77U: the self-cleavage came out at 0.97.

Take A75G U78C: the self-cleavage came out at 0.67.

Consider C34U U54C, for which the self-cleavage came to 0.44.

For the variant A65U U72A, the self-cleavage is 0.23.

For the variant G8C G73U, the self-cleavage turned out to be 0.25.

In the case of A2G G52C, the self-cleavage was found to be 0.83.

Take G7A C29A: the self-cleavage is 0.36.
